Results: publication PMC7604486 (Proceedings of the National Academy of Sciences of the …, 2020)

Molecular target: T1, Rae1 (NTE-deleted), chain of the crystallized heterotrimer (mouse, UniProt Q8C570 24-368)
T1 sequence (looked up): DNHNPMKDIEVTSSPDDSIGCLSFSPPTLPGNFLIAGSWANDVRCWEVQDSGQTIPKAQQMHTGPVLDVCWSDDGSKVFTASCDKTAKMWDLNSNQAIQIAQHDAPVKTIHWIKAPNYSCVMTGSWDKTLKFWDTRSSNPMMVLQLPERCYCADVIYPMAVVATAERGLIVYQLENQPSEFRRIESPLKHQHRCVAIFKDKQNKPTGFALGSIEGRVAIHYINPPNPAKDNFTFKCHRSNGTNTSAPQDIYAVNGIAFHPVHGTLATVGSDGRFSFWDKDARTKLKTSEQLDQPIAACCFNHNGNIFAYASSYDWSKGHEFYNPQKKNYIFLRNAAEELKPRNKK
Assay: crystal structure

B1: Nup98 GLEBS region, chain of the crystallized heterotrimer (domain or fragment)
chain: not shown
binding result: binds
